Laboratory results: publication PMC7064759

Experiments:
Experiment in all cases: BLI
Conditions in all cases: BLI: 20 mM Tris-HCl pH 7.4, 80 mM NaCl, temperature not stated; pull-down: 20 mM Tris-HCl pH 7.5, 300 mM KCl, 0.2 mM EDTA, 0.5 mM DTT, 5 ug/ml poly(I.C) …
[1] = tested on: T1, RBM45 RRM2-HOA (domain 2-HOA), Q8IUH3-3
T1 sequence: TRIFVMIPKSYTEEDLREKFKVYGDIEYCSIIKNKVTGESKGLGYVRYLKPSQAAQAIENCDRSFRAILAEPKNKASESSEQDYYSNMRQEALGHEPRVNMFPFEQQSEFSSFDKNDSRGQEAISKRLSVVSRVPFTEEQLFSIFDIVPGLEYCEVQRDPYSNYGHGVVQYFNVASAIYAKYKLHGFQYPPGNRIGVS

[2] = tested on: T2, RBM45 domain 2-3, Q8IUH3-3
T2 sequence: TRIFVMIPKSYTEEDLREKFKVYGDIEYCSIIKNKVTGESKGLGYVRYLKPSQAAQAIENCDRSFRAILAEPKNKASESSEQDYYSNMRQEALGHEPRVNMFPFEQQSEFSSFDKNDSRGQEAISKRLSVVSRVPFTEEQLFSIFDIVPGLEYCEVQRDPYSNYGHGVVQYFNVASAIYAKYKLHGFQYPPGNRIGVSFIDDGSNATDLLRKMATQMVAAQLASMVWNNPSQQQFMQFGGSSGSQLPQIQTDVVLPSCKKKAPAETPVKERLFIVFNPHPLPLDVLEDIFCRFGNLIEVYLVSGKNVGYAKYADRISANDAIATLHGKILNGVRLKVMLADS

[3] = tested on: T3, RBM45 aa 2-257 as printed, Q8IUH3-3
T3 sequence: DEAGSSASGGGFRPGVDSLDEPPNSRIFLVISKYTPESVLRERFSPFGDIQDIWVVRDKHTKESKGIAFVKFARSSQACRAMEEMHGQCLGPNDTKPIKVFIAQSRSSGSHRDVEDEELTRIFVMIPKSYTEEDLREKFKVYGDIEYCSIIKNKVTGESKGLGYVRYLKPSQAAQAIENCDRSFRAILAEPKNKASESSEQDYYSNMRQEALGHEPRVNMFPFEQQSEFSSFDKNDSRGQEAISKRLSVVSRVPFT

Sequence: GUAAAGCUACGGGACGGU [ISE3]
- Kd [1]: 21.3 nM
- Kd [2]: 21.8 nM
- Kd [3]: 43 nM
